The results in this text go back to patent US20210179684A1.

Experiment [1] addresses TrkC receptor on cells (NIH-TrkC). As to the kind of experiment: cell-based or functional assay.
The target is the same in experiment [2]. The experiment can be described thus: competition flow cytometry on NIH-TrkC cells; 20 nM Biotin-NT3 tracer, cold competitor at 200 nM; value is the tracer signal left.
The target is the same in experiment [3]. As to the kind of experiment: competition flow cytometry on NIH-TrkC cells; 20 nM Biotin-NT3 tracer, cold competitor at 200 nM; value is the tracer binding left.
In experiment [4] the target is TrkA receptor on cells (NIH-TrkA). As to the kind of experiment: competition flow cytometry on NIH-TrkA cells; 20 nM Biotin-NT3 tracer, cold competitor in 3-fold excess; value is the tracer signal left.
For experiment [5] the target is unchanged. As to the kind of experiment: competition flow cytometry on NIH-TrkA cells; 20 nM Biotin-NT3 tracer, cold competitor in 3-fold excess; value is the tracer binding left.
The target in experiment [6] is p75 neurotrophin receptor on cells (NIH-p75). The experiment can be described thus: flow cytometry on NIH-p75 cells; 20 nM Biotin-NT3, fluorescent avidin; no competitor.
Experiment [7] concerns the target TrkC receptor on cells (NIH-TrkC). The experiment can be described thus: flow cytometry on NIH-TrkC cells; 20 nM Biotin-NT3, fluorescent avidin; no competitor.
Experiment [8] deals with TrkA receptor on cells (NIH-TrkA). The experiment can be described thus: flow cytometry on NIH-TrkA cells; 20 nM Biotin-NT3, fluorescent avidin; no competitor.
Experiment [9] has as its target p75 neurotrophin receptor on cells (NIH-p75). As to the kind of experiment: competition flow cytometry on NIH-p75 cells; 20 nM Biotin-NT3 tracer, cold competitor at 200 nM; value is the tracer signal left.
Experiment [10] shares this target. As to the kind of experiment: competition flow cytometry on NIH-p75 cells; 20 nM Biotin-NT3 tracer, cold competitor at 200 nM; value is the tracer binding left.

For “Wild type NT-3 (neurotrophin 3, mature form), unlabeled (from UniProt P18280 140-258) (ligand)”, the % survival at 0.1 nM in culture in [1] was found to be 34%. Moreover, the MCF (mean channel fluorescence) came out at 25 in experiment [2] and 20 in experiment [4]. In [3], this substance showed a % of maximal binding to TrkC of 18%. This substance displayed a % of maximal binding to TrkA in [5] of 36%.
Turning to “Biotin-NT-3 (wild type NT-3 covalently linked to biotin, tracer) (from UniProt P18280 140-258) (ligand)”, the MCF (mean channel fluorescence) stood at 76 in experiment [6], 93 in experiment [7] and 38 in experiment [8].
In the case of “NT-3 mutant (SEQ ID NO: 23), D15A/R114A/K115A (from UniProt P18280 140-258) (ligand)”, the MCF (mean channel fluorescence) in experiment [9] was 69; in [4], 16. The substance further returned a % of maximal binding to p75 in experiment [10] of 89%. Moreover, the % of maximal binding to TrkC in experiment [3] came out at 13%.
